From publication PMC4669440

Key:
Conditions in all cases: glycan lost; control: WT mice
[1] = X-ray radiography of long bones
[2] = immunohistochemistry, anti-DMP1-N 9B6.3, cortical bone
[3] = H&E histology of long bone
[4] = three-point bending of femur and tibia
[5] = TRAP staining, 6-month-old mice

B1: Dentin matrix protein 1 (DMP1): S89G (protein)
parent chain: MKTVILLVFLWGLSCALPVARYHNTESESSEERTGDLAGSPPPPTNSESSEESQASPEGQANSDHTDSSESGEELGYDRGQYRPAGGLSKSTGTGADKEDDEDDSGDDTFGDEDNDLGPEEGQWGGPSKLDSDEDSTDTTQSSEDSTSQENSAQDTPSDSKDHDSEDEADSRPEAGDSTQDSESEEQRVGGGSEGESSHGDGSEFDDEGMQSDDPESTRSDRGHARMSSAGIRSEESKGDHEPTSTQDSDDSQSVEFSSRKSFRRSHVSEEDYRGELTDSNSRETQSDSTEDTASKEESRSESQEDTAESQSQEDSPEGQDPSSESSEEAGEPSQESSSESQEGVTSESRGDNPDNTSQAGDQEDSESSEEDSLNTFSSSESQSTEEQADSESNESLSLSEESQESAQDGDSSSQEGLQSQSASTESRSQESQSEQDSRSEEDSDSQDSSRSKEESNSTGSASSSEEDIRPKNMEADSRKLIVDAYHNKPIGDQDDNDCQDGY
decreases: other: radiographic bone density [1] | expression_or_secretion [2] | other: articular cartilage thickness [3] | other: bone mechanical strength [4] | other: osteoclast number in bone [5]
